Molecular target: OGG1 (UniProt O15527)
Experiment: co-IP, Western blot
Conditions: reference: wild type, KBrO3; sites S46,S53

SIRT2 (from UniProt Q8IXJ6) S46AS53A, KBrO3
binding against the reference: weaker

— PMC11109957
